From patent US20160317649A1, “EPITOPES OF HERPES SIMPLEX VIRUS” (priority 2007, published 2016)
Read-outs that look alike come from different tables or passages of the source.

Columns and labels:
Details in all cases: modification not given
[1] = biological target: HLA DRB1*0701 (human)
[2] = biological target: HLA DRB1*0101 (human)
[3] = biological target: HLA DRB1*0701 (human); remark: listed apart in the source
[4] = biological target: HLA DRB1*0101 (human); remark: listed apart in the source
[5] = biological target: HLA DRB1*1302 (human)
[6] = biological target: HLA DRB1*0101 (human); remark: listed apart in the source

## AYQQGVTVDSIG [24.2]
[1]
  IC50: 2720 nM
[2]
  IC50: 471 nM

## YQQGVTVDSIGM [24.3]
[3]
  IC50: 389 nM

## HAPAAPANPGLI [34.1]
[4]
  IC50: 3550 nM

## APAAPANPGLII [34.2]
[5]
  IC50: 642 nM
[6]
  IC50: 1270 nM
